Results reported in the DeepSol protein solubility set.

Experiment: soluble on expression in E. coli; label from the status in PepcDB or PDB records

| Sequence | soluble on expression in E. coli |
| --- | --- |
| MSLKTYALVMAGGRGERLWPLSREDRPKPFLPLFEGKTLLEATLERLAPLVPPERTLLAVRRDQEAVARPYADGIRLLLEPLGRDTAGAVLLGVAEALKEGAERLLVLPADHYVGDDEAYREALATMLEAAEEGFVVALGLRPTRPETEYGYIRLGPREGAWYRGEGFVEKPSYAEALEYIRKGYVWNGGVFAFAPATMAELFRRHLPSHHEALERLLAGASLEEVYAGLPKISIDYGVMEKAERVRVVLGRFPWDDVGNWRALERVFSQDPHENVVLGEGRHVALDTFGCVVYADRGVVATLGVSGLVVAKVGDEVLVVPKDWAREVREVVKRLEAQEEGHHHHHH | soluble |
| MSLKVFLKKGKEKKVKHFYPWVFRDEVEKIEGEGIVAELYDSEGNFLALGTYSPYSRIAFRVLSYEREEVNEEFFKRRLRESELLRRDIPSNAYRLAFSESDLLSGLIIDRYGDAFVIQVRSYPMEILKEKVLKTLVEEFNPAFVYERSDFKGRREEGLKEFKGLLYGKLENPLIIEEREFKFLVDVVEGLKTGFYLDQRDNREYVRNLVKEGDRVLDLFCYSGGFSVYCANRGAKVVGVDINKRAVELARENAKLNSVKADFVLGNAFDFIQESKEEWDLIIADPPAIAKTKKEKESILWAIWKLAYYSFQKLKKGGSLFICSCTYQISSEEMIRQVRLASTDVKRRIIIKSLNLQPIDHPYLPTFPESLYLKCLHAIVIDEGHHHHHH | soluble |
| MSLKYGIIGAGAMGYRYGVMLQENAGVDVDFIDTWGPNVAKVREQGGVDVARDHQNHHVVPINIYYPEEYQGHPDVWIVFKKQMQLADELKRDASLFHEDQYVFAAMNGMGHFEKIAQYFPENHIIGGTAMIATVLNGPGTVDFMGPKGSEAMHMSKYAGHIDTTTKQVMADFKAADLNPIWSDNFMGMCMSKVVFNAVTNSLCTMFEIQMGQFIEYPGVKDMATQMFNEAYDACERAGIKLIETRQEEIDSVETVSRAYKYHYPSMYQDFSKGRPTEVDYINGYIAKIGREHDYVCRVHEFVTHEVHLAEMMRQYRHPEIPVAEKEGHHHHHH | not soluble |
| MSLLERLNQDMKLYMKNREKDKLTVVRMVKASLQNEAIKLKKDSLTEDEELTVLSRELKQRKDSLQEFSNANRLDLVDKVQKELDILEVYLPEQLSEEELRTIVNETIAEVGASSKADMGKVMGAIMPKVKGKADGSLINKLVSSQLS | soluble |
| MSLLKQKILNRESGIITYGITPPKKNNTEEKIKEISQKHIERISGLDIDGLVIYDLQDEKERVSEERPFPFIETIDPQIYSENYLKDLKIPKIIYRCVGKYTPDEFRRLTRPVSGQDAFSVFVGAASRNQSVLLKLSDAYKIRQDVNPDLLLGGVAIPERHMKNTDEHLRIIDKINKGCKYFITQAVYNVEAAKDFLSDYYYYSKNNNLKMVPIIFTLTPCGSTKTLEFMKWLGISIPRWLENDLMNCEDILNKSVSLSKSIFNELMEFCLEKGIPIGCNIESVSVRKVEIEASIALAKDIKYIMKGEGHHHHHH | soluble |
| MSLLMTLVDEIKNRSSHVDAAIDELLPVTRPEELYKASRYLVDAGGKRLRPAVLILAAEAVGSNLRSVLPAAVAVELVHNFTLIHDDIMDRDDIRRGMPAVHVKWGEAGAILAGDTLYSKAFEILSKVENEPVRVLKCMDVLSKTCTEICEGQWLDMDFETRKKVTESEYLEMVEKKTSVLYAAAAKIGALLGGASDEVAEALSEYGRLIGIGFQMYDDVLDMTAPEEVLGKVRGSDLMEGKYTLIVINAFEKGVKLDIFGKGEATLEETEAAVRTLTECGSLDYVKNLAISYIEEGKEKLDVLRDCPEKTLLLQIADYMISREYEGHHHHHH | soluble |
| MSLLNIIRLLAESLPRISDGNENTDVWVNDMKFKMAYSFLNDDIDVIERELEQTVRSDYPLLSEAGLHLLQAGGKRIRPVFVLLSGMFGDYDINKIKYVAVTLEMIHMASLVHDDVIDDAELRRGKPTIKAKWDNRIAMYTGDYMLAGSLEMMTRINEPKAHRILSQTIVEVCLGEIEQIKDKYNMEQNLRTYLRRIKRKTALLIAVSCQLGAIASGADEKIHKALYWFGYYVGMSYQIIDDILDFTSTEEELGKPVGGDLLQGNVTLPVLYALKNPALKNQLKLINSETTQEQLEPIIEEIKKTDAIEASMAVSEMYLQKAFQKLNTLPRGRARSSLAAIAKYIGKRKFEGHHHHHH | not soluble |
| MSLLPRTTSVKPGEKFDVIIVGLGPAAYGAALYSARYMLKTLVIGETPGGQLTEAGIVDDYLGLIEIQASDMIKVFNKHIEKYEVPVLLDIVEKIENRGDEFVVKTKRKGEFKADSVILGIGVKRRKLGVPGEQEFAGRGISYCSVADAPLFKNRVVAVIGGGDSALEGAEILSSYSTKVYLIHRRDTFKAQPIYVETVKKKPNVEFVLNSVVKEIKGDKVVKQVVVENLKTGEIKELNVNGVFIEIGFDPPTDFAKSNGIETDTNGYIKVDEWMRTSVPGVFAAGDCTSAWLGFRQVITAVAQGAVAATSAYRYVTEKKGKK | soluble |
| MSLLTEVETYVLSIIPSGPLKAEIAQKLEDVFAGKNTDLEALMEWLKTRPILSPLTKGILGFVFTLTVPSERGLQRRRFVQNALNGNGDPNNMDRAVKLYKKLKREITFHGAKEVALSYSTGALASCMGLIYNRMGTVTTEVAFGLVCATCEQIADSQHRSHRQMATITNPLIRHENRMVLASTTAKAMEQMAGSSEQAAEAMEVANQARQMVQAMRTIGTHPNSSAGLRDNLLENLQAYQKRMGVQMQRFK | soluble |
| MSLMPDKKGYIIDIDGVIGKSVTPIPEGVEGVKKLKELGKKIIFVSNNSTRSRRILLERLRSFGLEVGEDEILVATYATARFIAREKPNAKVFTTGEEGLIEELRLAGLEIVDYDEAEYLVVGSNRKINFELMTKALRACLRGIRYIATNPDRIFPAEDGPIPGTGMIIGALYWMTGREPDVVVGKPSEVIMREALDILGLDAKDVAVVGDQIDVDVAAGKAIGAETVLVLTGVTTRENLDQMIERHGLKPDYVFNSLKDMVEALEGEGHHHHHH | soluble |
| MSLMTLYPVVVQERTTGEVLMLAYANEEALELTKKTGYAHFFSRERQKIWKKGETSGNTMRVVEIRRDCDDDAYLYIVDFPEDKVACHTGNRSCFFKVEHRFEETGSPTFWLELYRLVRKRKEEMPEGSYTVKLFKEGKGKIAKKFGEEAVEVITGYLQNDRENLVWEIADMMYHLTVLMADAGVTVQDVMRELEKRRKEGHHHHHH | soluble |
| MSLNDEMKGKSGKVKVMYVRSDDDSDKRTHNPRTGKGGGRPGKSRADGGRRPARDDKQSQPRDRKWEDSPWRTVSRAPGDETPEKADHGGISGKSFIDPEVLRRQRAEETRVYGENACQALFQSRPEAIVRAWFIQSVTPRFKEALRWMAANRKAYHVVDEAELTKASGTEHHGGVCFLIKKRNGTTVQQWVSQAGAQDCVLALENESNPHNLGGMMRSCAHFGVKGVVVQDAALLESGAAIRTAEGGAEHVQPITGDNIVNVLDDFRQAGYTVVTTSSEQGKPLFKTSLPAKMVLVLGQEYEGLPDAARDPNDLRVKIDGTGNVAGLNISVATGVLLGEWWRQNKAEGHHHHHH | soluble |
| MSLNDGNAMGQVIQIDEARIRDHLGEMVRGTVEETLNAMLEAEADQLCGAGRYERSPARQDTRAGSYERTLQTKAGDVNLKVPKLRRQTFETAIIERYRRRESSVEEALIEMYLAGISVRRVEDITEALWGTRVSPSTVSNLNKKIYAKIEAWRNRRIEGEHPYLYLDGIVMKRSWAGEVRNVSLLVASAVNAEGFREILGICEGAKEDKSGWSSFLRHLVDRGLKGVQLVVSDACRGLVESVADYLPEARYQRCMVHFYRNVFSHVPSTRVHEVSHMLKAIHAQESRAAADEKARTVIADLRASRMAKAADLVEQAVHETLAYYAFPDIHWRKIRTNNPLERIMKEIRRRTRVVGAFPDGQSCLNLAAARLRHIAGTAWSTKCYMNMRPLYQPQLSETGAVAEGHHHHHH | soluble |
| MSLNDLLVGLLLPEKENTRYEQFDYPFFKKKVGELTRDEGIVKYANAEASATKQADQMQQMIEDKVDVIVLDAVDAHAIADGVQKAKDAGIPVIAYDRLAEGPIDAYISFDNELVGEVQGRSLIEALGGDPESSAKIVMMNGSSTDPNAKQFKAGALSELNGKVTIAQSFDTKDWKPENAEANMTEAIEKIGKKKIAGVYSANDGMAGGVIKALEDAGVTDLPPITGQDAELAAVQRIVTGEQYMSVYKSYPQEAENAAEMAVARVQGRDIQFDALARDKVDSPTHKGIPAQLVPVVALTKANIEETVVAEGHHHHHH | soluble |
| MSLNDLVMDVDLDFADGQSPMRTKKANEIIRDPISGSVVIPIDADKFPKESHNSPLVFKLGNGANENIMHVKSQKDVNLYPVPLSTSDFSENFINYICNLFDIYQDLGSHRIFSRPTIGVISSDYELEHTRVVNMALDSMIIELEILIASYDKLENANIARILELEQCLVILQCLRTFQFIDSINDRATFFDSLLKWTNRTDGEPKVEYIQSIFGQSDSSQVFFTEPFWKLVYQLLLRGLTEQAINTLEKSELAKYLKENCETTSTIFEDFIQLVKNYPLESEEHFREWKSFALELQQNFEDADTKIPVPLRKNLLDAISITAGNRDKILQHSSFWYESLTGFLLYYIPSEELIQEYVGLAVSKTPIDVTNPWETACLKILQNDIFPVLPILESLDNCTASFSAALCESKGLLIDRYTILEENSGSDDIEIDDIFSQRNGMASFLLNNFALELCSMKMKTLWPVAIGLISLSPYNTPSSKKSTIAELIPHYPFETNDDIEWALSVCAKWRLPDIAKEIYTTLGNQMLDNGNTVEAIANFSKAGQYELVKHYSWLLFENAAFQGKPMEDEVLSAIVDGDFNTSELIPDEVLNKVVTNAMRQSLSPYAVLSQFFSNVENERWSKALQQLMSLIEFEYLPKKYTVLLIVKYMYPLFLNDDQRMIDEETLVSLLAAIEKNWDCDDTDSVIAYEKLSEEIADLPKELKSMEKLIRKKLNGKLCLNLMIEGHHHHHH | soluble |
| MSLNDSRLLPVGSSPLEVAAARACAEIERTPVNIRALWNPDTCPENLLPWLAWAFSVDRWDENWPEGTKRAVIRDAYFIHCHKGTIGAIRRVVEPLGYVINVTEWWESSDPPGTFRLDIGVLESGITEEMYFEMERLIADAKPASRHLTGLNIVQDIPGYLYTGGVSCDGDIITVYPGEGHHHHHH | not soluble |
| MSLNEIDNKLFLVYVGGTAPGANIELHDIRFVVGPSMEETYPAIRKGWFGTQKGLHLDSFVHLHHVDGYRIHLTSEAHEKPEEKRLYFVNFGGYFPNKLAEYHDFTVVVADSPQSAKQLARAQFSKAGLADAEQIHKDDLLAVDDCLCVDLVDNHYVTLEFDGEQQPLVPDWKGYQPLPEGHHHHHH | soluble |
| MSLNEPLAERIRPKTLEDYVSQQHLVGENGILTKLIKQGIIPSLILWGPPGIGKTTLANIIATTSNRPFYTLSAISSGVKDVRDVIEKAKKSGGLFTAKNPILFIDEIHRFSKSQQDSLLGAVEKGWVTLIGATTENPSFEVIPALLSRCQIYILNSFDKEELIALLHRAMEKDAFLSSKKIILKETEALLQVSGGDARKLLNIFELLVSVDDEVVITNELVLSKIQKNTARYDKSGPQHYDIVSAFIKSIRGSDPNAAVYWLARMIEGGEDVKFIARRMLILASEDIGNANPTALIMANNTFQAVAIVGNPESRIILSQCAIYLSNSAKSNASYLAIGAAQKLVQETGDLSVPLNLRNAPTKLMKDLDYGADYKYSHDYPNSFVAQEFLPKTLSGNKIYTPGKNPREQQFKEVLKNRWKNKYEGHHHHHH | not soluble |
| MSLNFHDVRFPPSLSFGSLGGPQRRTDVVTLANGYEERNTPWAHSRRVYDAGLGMRSIDDVQALTGFFEARMGQMYGFRWKDWADFKSCASSVGVTFEDQSLGFGDGVRTDYQLVKTYSSGGHSYVRPITKPVAGTVRVGIEQDALQEGSDYEVDLSTGIIRFAHAPDPEMQVSAGFEFDVPVRFDTDRILVSVASFQAGQVPDVPVIEVRVEGHHHHHH | soluble |
